The values below come from patent EP1379283B1 (Palatin Technologies, Inc., dated 2002).

Square brackets hold non-standard residues; d marks the D form. Nle = CCCC[C@H](N)C(=O)O

The target in assay [1] is T1, hMC4-R (human, UniProt P32245 1-332).
T1 construct: whole, on cells; Membrane preparation; also called MCR-4
The assay can be described thus: assay not described for this value.

In assay [2] the target is T2, MC1-R of B-16 mouse melanoma cells (mouse, UniProt Q01727 1-315).
T2 construct: whole, on cells; Membrane preparation; also called MCR-1
In words: assay not described for this value.

T2 sequence (Q01727 whole entry): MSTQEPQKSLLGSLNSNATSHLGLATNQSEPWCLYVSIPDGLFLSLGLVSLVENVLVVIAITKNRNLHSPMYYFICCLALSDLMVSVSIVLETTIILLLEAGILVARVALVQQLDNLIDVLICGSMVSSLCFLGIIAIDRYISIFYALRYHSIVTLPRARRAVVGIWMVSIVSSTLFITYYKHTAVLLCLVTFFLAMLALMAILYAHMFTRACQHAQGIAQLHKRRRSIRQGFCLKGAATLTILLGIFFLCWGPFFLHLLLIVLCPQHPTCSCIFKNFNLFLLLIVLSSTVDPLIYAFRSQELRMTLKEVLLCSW
T1 sequence (P32245 whole entry): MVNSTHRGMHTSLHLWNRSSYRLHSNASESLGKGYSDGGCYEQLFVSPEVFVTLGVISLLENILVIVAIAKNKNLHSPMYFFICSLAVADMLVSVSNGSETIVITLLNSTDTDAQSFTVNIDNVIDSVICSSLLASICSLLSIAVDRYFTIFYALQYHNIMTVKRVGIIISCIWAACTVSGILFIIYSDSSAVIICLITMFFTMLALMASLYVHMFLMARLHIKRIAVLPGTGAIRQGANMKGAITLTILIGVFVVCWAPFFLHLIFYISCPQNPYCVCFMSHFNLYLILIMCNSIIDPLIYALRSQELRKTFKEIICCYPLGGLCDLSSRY

B1: Ac-Nle-Ala-His-D-Phe-Arg-Trp-NH2 (peptide)
peptide: Ac-[Nle]AH[dF]RW-NH2
notes: Linear parent peptide, not complexed to a metal; also called parent melanocortin peptide
As to B1, the Ki in assay [1] was 2 µM; in assay [2], 0.1 µM.
